# Assay results as given in patent publication US7947279B2, “Peptide having hydrolase activity” (The Trustees of Columbia University in the City of New York, priority 2005, dated 2011).
# Entries after “also recorded” stand apart in the source; their conditions may differ.
# Tests used:
# Uch-L1 [1] = target: T1, Uch-L1 (Mus musculus, UniProt Q9R0P9); test: Hydrolase (ubiquitin-AMC) assay on hippocampal slices; format: cell-based
# T1 construct: hippocampal tissue was treated with tissue protein extraction reagent; from tissue; host or cells: mouse hippocampal slices (C57/BL6 or APP/PS1 and WT littermates)
# T1 sequence (Q9R0P9 1-220): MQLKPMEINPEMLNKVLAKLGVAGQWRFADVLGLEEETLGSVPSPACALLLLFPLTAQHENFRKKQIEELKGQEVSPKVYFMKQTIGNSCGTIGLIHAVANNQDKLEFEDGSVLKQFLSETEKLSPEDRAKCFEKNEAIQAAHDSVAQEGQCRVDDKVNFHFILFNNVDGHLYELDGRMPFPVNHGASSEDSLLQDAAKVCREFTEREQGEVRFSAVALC
# Experimental: (§1) Slice preparation. Mice were decapitated and their hippocampi removed. […] Slices were permitted to recover from cutting for at least 90 min. before recordings. For experiments with lactacystin, slices were perfused with the drug or vehicle for 2 to 4 hrs in a small volume (10 ml) chamber.
# (§2) Briefly, hippocampal tissue was treated with tissue protein extraction reagent (T-PER; Pierce) containing freshly added EDTA-free protease inhibitors. Homogenate was centrifuged at 10,000 rpm for 5 min. Protein concentration was measured in the supernatant using the BCA protein assay reagent. In some experiments hydrolysis was initiated by adding 10 μl of 20 nM Uch-L1 or Uch-L3 (Boston Biochem). The hydrolase assay was performed using fluorogenic ubiquitin-7-amino-4-methylcoumarin (ubiquitin-AMC) (Boston Biochem) as a substrate. The substrate was diluted in assay buffer (50 mM Tris-HCL, 0.5 mM EDTA, 5 mM dithiothreitol and 0.1 mg/ml ovalbumin, pH 7.6). Each reaction mixture containing 400 nM substrate and 100 μg enzyme sample was incubated for 5 min at room temperature. The reaction was monitored using a fluorescence spectrophotometer (CytoFluor Series 4000, ABI Inc) at 25° C. The free AMC fluorophore was excited at 380 nm and measured at 460 nm. […] In some experiments, hydrolysis was also measured on the soluble and insoluble fractions (FIG. 28D). In a group of experiments hydrolysis was measured by mixing ubiquitin-AMC with 20 nM TAT fusion proteins (FIG. 27C). In other experiments the substrate was Nedd8-AMC (Boston Biochem).
# Uch-L1 [2] = test: as above; format: cell-based, mouse
# Experimental: as §1, §2
# PKA = PKA kinase activity in hippocampal cultures; format: cell-based, rat; conditions: fusion protein 100 nM 24 hrs; for basal PKA activity in Aβ-treated cultures: Aβ 24 hrs
# Experimental: PKA Kinase Activity Measurement. Primary hippocampal neurons from E18 rats were dissociated and cultured as described (Vitolo et al, Proc Natl Acad Sci USA 99:13217-13221 (2002)). […]
# Hippocampal slices were lysed with RIPA lysis buffer and homogenized by Dounce homogenizer on ice. 5 DIV primary cultures were treated for 24 hrs and cells were lysed with RIPA lysis buffer.
# Levels of intracellular PKA kinase activity were measured by PKA Kinase Activity Assay Kit (Stressxpress) according to manufacturer's instructions.
# Preparation of Cell Cultures. Hippocampal cell cultures were prepared as previously described (Vitolo et al., 2002). In cell culture experiments fetuses at embryonic day 18 from timed pregnant Sprague-Dawley rats (Taconic Farms) were used. Fetuses were sacrificed and the hippocampi removed. Neurons were then dissociated, plated on 6 well-plates coated with poly-L-lysine and maintained in a defined serum-free medium containing minimum essential medium supplemented with N-2, glucose, albumin, pyruvic acid, antibiotics and antimycotics. […] 5 DIV cells were used for the experiments.
# monoubiquitin = test: Monoubiquitin levels (quantitative Western blot); format: cell-based, mouse
# Experimental: (§3) Western Blotting: Protein levels were assessed using standard procedures. Protein extraction was performed using buffer with and without detergent. For the extraction of protein using detergent, hippocampal tissues and cultured hippocampal neurons (5 DIV) were homogenized in RIPA buffer (50 mM Tris-HCl pH 7.4, 1% Triton X-100, 1% sodium deoxycholate, 0.1% SDS, 150 mM sodium chloride, 10 mM sodium fluoride, 30 mM sodium pyrophosphate, 50 mM sodium orthovanadate) containing 1× complete protease inhibitor (Roche) and 1 mM phenylmethylsulfonyl fluoride (PMSF). For extraction of proteins without detergent, hippocampal extracts were homogenized with disposable dounce homogenizers in buffer A, containing 10 mM HEPES pH 7.3, 300 mM sucrose, protease 1× complete protease inhibitor (Roche) and PMSF. After centrifugation at 10,000×g supernatant proteins were resolved on a 8% or 4-20% gradient Tris-Glycine gel, transferred onto PVDF or nitrocellulose membrane and blocked in 5% skim milk in PBS-Tween 0.1% (PBS-T). Membranes were probed with primary antibodies, and after washing with PBS-T incubated with an appropriate HRP-conjugated secondary antibody. The following antibodies were used: mouse monoclonal anti-ubiquitin (Chemicon), rabbit polyclonal anti-pCREB (Upstate Biotech.), rabbit polyclonal anti-PKA-RIIα (Santa Cruz Biotech. Inc), mouse monoclonal anti-Uch-L1 (Novocastra), monoclonal mouse anti-HA (Santa Cruz Biotech. Inc), and anti-PKA IIα. Detection was performed using HRP-conjugated secondary antibodies (Pierce, Rockford, Ill.). To control loading and transfer, protein immunoreactivities were normalized against total extracellular signal-regulated protein kinases (ERK1/2) levels with a rabbit analyzed using a rabbit polyclonal anti-ERK1/2 antibody (Cell Signaling Technology, Inc). NIH IMAGE was used to analyze the scanned blots and quantify the intensity of the protein signals.
# PKA RIIα = PKA RIIα levels in hippocampal slices (Western blot); format: cell-based, mouse; conditions: for Aβ-induced increase in PKA RIIα levels (words): fusion protein 20 nM 1 hr, Aβ 200 nM 20 min
# Experimental: as §3
# [3] = Native gel dimer formation; format: physicochemical
# Aβ42 = test: Quantification of amyloid peptides by ELISA in APP/PS1 mice; format: in vivo, mouse; conditions: for cortex Aβ levels / hippocampal Aβ levels: 0.02-0.04 g/kg i.p.; for Aβ levels in APP/PS1 mice (words): single injection 0.02-0.04 g/kg i.p.
# [4] = listed as TAT-Uch-L1 fusion protein
# [5] = listed as Uch-L1 fusion protein
# [6] = 3-5 month old APP/PS1 mice, sacrificed 3 weeks after injection
# [7] = 4 month old APP/PS1 mice, sacrificed 4 hrs after injection
# [8] = 4 hrs after injection, 4 month old APP/PS1 mice
molecule,measurement,setting,value
"CC(=O)O/N=C1\C(=O)N(Cc2cc(Cl)ccc2Cl)c2ccc(Cl)cc21 [LDN-57444, reference compound]",reduction of enzymatic activity,Uch-L1 [1]; 1 μM LDN,20%
same,reduction of enzymatic activity,"Uch-L1 [1]; 2.7 μM LDN, 2-4 hour perfusion",~40%
same,inhibition of enzymatic activity,"Uch-L1 [1]; 5 μM LDN, 15 minute perfusion",20%
same,reduction of activity,"Uch-L1 [1]; 5 μM LDN, 2 hour exposure",70%
same,Maximal inhibition of Uch activity,"Uch-L1 [1]; 5 μM LDN, one hour (60 min)",70%
same,Uch activity in APP/PS1 slices,Uch-L1 [1]; 5 μM for 2 hrs,further reduced Uch activity
same,Ubiquitin-C-Terminal hydrolase activity,Uch-L1 [1]; 5 μM for 4 hrs,decreased
same,Uch-L1 hydrolase activity,"Uch-L1 [1]; LDN-57444 perfusion (5 μM, 4 hrs)",less than 30 % of vehicle-treated controls
same,enzymatic activity,"Uch-L1 [1]; WT and APP/PS1 slices, 5 μM LDN, 2 hours",~70 % of values in vehicle treated WT slices
"TAT-HA-Uch-L1: fusion protein: 11-amino acid transduction domain of HIV-transactivator protein (TAT) fused with an HA tag and human Uch-L1 (protein, left off: small tags and cut ends) MQLKPMEINPEMLNKVLSRLGVAGQWRFVDVLGLEEESLGSVPAPACALLLLFPLTAQHENFRKKQIEELKGQEVSPKVYFMKQTIGNSCGTIGLIHAVANNQDKLGFEDGSVLKQFLSETEKMSPEDRAKCFEKNEAIQAAHDAVAQEGQCRVDDKVNFHFILFNNVDGHLYELDGRMPFPVNHGASSEDTLLKDAAKVCREFTEREQGEVRFSAVALCKAA",Uch activity,"Uch-L1 [2]; 20 nM fusion protein 1 hr pre-incubation, 200 nM Aβ 20 min",normal monoubiquitin levels and Uch activity are maintained; also recorded: re-established normal ubiquitin-C-terminal hydrolase activity; also recorded: re-established normal Uch activity
same,ubiquitin-c-terminal hydrolase enzymatic activity,"Uch-L1 [2]; 20 nM fusion protein 1 hr, then 200 nM Aβ plus fusion protein",98.40±5.76 % of TAT-HA treated WT slices
same,enzymatic (Uch) activity,Uch-L1 [2]; fusion protein alone,slight increase
same,enzymatic activity,Uch-L1 [2]; fusion protein alone for 1 hr,148.63±12.01 % of TAT-HA treated slices
same,Uch activity,"Uch-L1 [2]; slices from 4 month APP/PS1 mice, 20 nM for 1 hr",Uch activity is restored
same,glutamate-induced increase in PKA activity in Aβ-treated cultures,"PKA; 3 μM Aβ 24 hrs, glutamate 50 μM 15 min",rescued the increase in PKA activity; also recorded: rescued the glutamate-induced increase in kinase activity
same,basal PKA activity in Aβ-treated cultures,PKA,reversing the Aβ-induced decrease in basal PKA activity; also recorded: re-established; also recorded: increased levels of kinase activity
same,basal PKA activity in Aβ-treated cultures,PKA; [4],re-establishes normal levels
same,mono-ubiquitin levels,"monoubiquitin; 20 nM fusion protein 1 hour, then 200 nM oligomeric Aβ plus fusion protein 20 min",90.25±17.25 % of control
same,monoubiquitin levels,monoubiquitin; fusion protein 20 nM 1 hr pre-incubation plus Aβ,normal monoubiquitin levels; also recorded: blocks the decrease of monoubiquitin levels
same,monoubiquitin levels,"monoubiquitin; fusion protein 20 nM 1 hr pre-incubation plus Aβ, listed as TAT-A-Uch-L1 peptide",annulled the decrease
same,monoubiquitin levels,"monoubiquitin; fusion protein 20 nM 1 hr pre-incubation plus Aβ, listed as TAT-Uch-L1 fusion protein",re-establishes normal mono-ubiquitin levels
same,mono-ubiquitin levels,monoubiquitin; fusion protein alone,121.03±14.69 % of control
same,monoubiquitin levels,monoubiquitin; substance alone,slight increase
same,IIα regulatory subunit levels,PKA RIIα; 20 nM TAT-HA-Uch-L1 1 hr pretreatment plus Aβ42,121.03±14.10 % of control
same,Aβ-induced increase in PKA RIIα levels (words),PKA RIIα,blocked by pretreatment; also recorded: re-established normal levels of regulatory subunit; also recorded: re-established normal levels of RIIα
same,Aβ-induced increase in PKA RIIα levels (words),PKA RIIα; [4],blocks the increase
same,Aβ-induced increase in PKA RIIα levels (words),PKA RIIα; [5],blocked
same,dimer formation,[3]; 1 μM,no dimer formation was detected; also recorded: No dimers were detected
same,dimer formation,[3]; 5 μM,Dimers were seen at 5 μM; also recorded: A weak band corresponding to dimers and other oligomeric species was detected
same,cortex Aβ levels,Aβ42; [6],90.28±17.38 pmol/mg protein
same,hippocampal Aβ levels,Aβ42; [6],178.60±18.24 pmol/mg protein
same,cortex Aβ levels,Aβ42; [7],4.17±0.68 pmol/mg protein
same,hippocampal Aβ levels,Aβ42; [7],6.35±0.54 pmol/mg protein
same,cortical Aβ42,Aβ42; [8],about 104%
same,hippocampal Aβ42,Aβ42; [8],about 94 % that of vehicle-treated APP/PS1 mice
same,cortical Aβ42,Aβ42; mice tested for fear conditioning over 21 days,about 103%
same,Aβ levels in APP/PS1 mice (words),Aβ42,no difference in Aβ42 levels; also recorded: did not change Aβ levels
same,Aβ levels in APP/PS1 mice (words),Aβ42; [5],did not change Aβ levels
